Laboratory results reported in US20250122303A1, “TREATMENT AND PREVENTION OF CANCER USING HER3 ANTIGEN-BINDING MOLECULES” (Hummingbird Bioscience Pte. Ltd., priority 2021, published 2025).

Legend:
[1] = clinical, literature, cited from earlier work
cynomolgus macaque HER3 = experiment: ELISA cross-reactivity, cynomolgus macaque HER3; type: binding
Protocol: (§1) ELISAs were used to determine the binding specificity of the antibodies. The antibodies were analysed for binding to human HER3 polypeptide, as well as respective mouse, rat and monkey homologues of HER3 (Sino Biological Inc., China). The antibodies were also analysed for their ability to bind to human EGFR and human HER2 (Sino Biological Inc., China).
(§2) ELISAs were carried out according to standard protocols. Briefly, 96-well plates (Nunc, Denmark) were coated with 0.1 μg/ml of target polypeptide in phosphate-buffered saline (PBS) for 16 h at 4° C. After blocking for 1 h with 1% BSA in Tris buffer saline (TBS) at room temperature, the anti-HER3 antibody was serially diluted with the highest concentration being 10 μg/ml, and added to the plate. Post 1 h incubation at room temperature, plates were washed three times with TBS containing 0.05% Tween 20 (TBS-T) and were then incubated with a HRP-conjugated anti-His antibody (Life Technologies, Inc., USA) for 1 h at room temperature. After washing, plates were developed with colorimetric detection substrate 3,3′,5,5′-tetramethylbenzidine (Turbo-TMB; Pierce, USA) for 10 min. The reaction was stopped with 2M H2SO4, and OD was measured at 450 nm. […]

[2] = tested on: A549 cell-line derived mouse model of lung adenocarcinoma; experiment: A549 cell-line derived xenograft model; type: in vivo; conditions: A549, NPG mice, IP weekly 500 μg, 4 doses
human HER2 = target: T1, human HER2 (Homo sapiens, UniProt P04626); experiment: ELISA specificity, human HER2; type: binding; conditions: antibody up to 10 μg/ml
T1 construct: purchased Sino Biological Inc., China
Protocol: as §1
(§3) ELISAs were carried out according to standard protocols. Briefly, 96-well plates (Nunc, Denmark) were coated with 0.1 μg/ml of target polypeptide in phosphate-buffered saline (PBS) for 16 h at 4° C. After blocking for 1 h with 1% BSA in Tris buffer saline (TBS) at room temperature, the anti-HER3 antibody was serially diluted with the highest concentration being 10 μg/ml, and added to the plate. Post 1 h incubation at room temperature, plates were washed three times with TBS containing 0.05% Tween 20 (TBS-T) and were then incubated with a HRP-conjugated anti-His antibody (Life Technologies, Inc., USA) for 1 h at room temperature. […] The reaction was stopped with 2M H2SO4, and OD was measured at 450 nm.
(§4) The antibodies were analysed for their ability to bind to human HER3 polypeptide as well as human HER1 (EGFR) and human HER2 (Sino Biological Inc., China). […]
(§5) ELISAs were carried out according to standard protocols. […] The reaction was stopped with 2M H2SO4, and OD was measured at 450 nm.

mouse HER3 = target: T2, mouse HER3 (Mus musculus, UniProt Q61526); experiment: ELISA cross-reactivity, mouse HER3; type: binding
T2 construct: purchased Sino Biological Inc., China
T2 sequence (Q61526 20-1339): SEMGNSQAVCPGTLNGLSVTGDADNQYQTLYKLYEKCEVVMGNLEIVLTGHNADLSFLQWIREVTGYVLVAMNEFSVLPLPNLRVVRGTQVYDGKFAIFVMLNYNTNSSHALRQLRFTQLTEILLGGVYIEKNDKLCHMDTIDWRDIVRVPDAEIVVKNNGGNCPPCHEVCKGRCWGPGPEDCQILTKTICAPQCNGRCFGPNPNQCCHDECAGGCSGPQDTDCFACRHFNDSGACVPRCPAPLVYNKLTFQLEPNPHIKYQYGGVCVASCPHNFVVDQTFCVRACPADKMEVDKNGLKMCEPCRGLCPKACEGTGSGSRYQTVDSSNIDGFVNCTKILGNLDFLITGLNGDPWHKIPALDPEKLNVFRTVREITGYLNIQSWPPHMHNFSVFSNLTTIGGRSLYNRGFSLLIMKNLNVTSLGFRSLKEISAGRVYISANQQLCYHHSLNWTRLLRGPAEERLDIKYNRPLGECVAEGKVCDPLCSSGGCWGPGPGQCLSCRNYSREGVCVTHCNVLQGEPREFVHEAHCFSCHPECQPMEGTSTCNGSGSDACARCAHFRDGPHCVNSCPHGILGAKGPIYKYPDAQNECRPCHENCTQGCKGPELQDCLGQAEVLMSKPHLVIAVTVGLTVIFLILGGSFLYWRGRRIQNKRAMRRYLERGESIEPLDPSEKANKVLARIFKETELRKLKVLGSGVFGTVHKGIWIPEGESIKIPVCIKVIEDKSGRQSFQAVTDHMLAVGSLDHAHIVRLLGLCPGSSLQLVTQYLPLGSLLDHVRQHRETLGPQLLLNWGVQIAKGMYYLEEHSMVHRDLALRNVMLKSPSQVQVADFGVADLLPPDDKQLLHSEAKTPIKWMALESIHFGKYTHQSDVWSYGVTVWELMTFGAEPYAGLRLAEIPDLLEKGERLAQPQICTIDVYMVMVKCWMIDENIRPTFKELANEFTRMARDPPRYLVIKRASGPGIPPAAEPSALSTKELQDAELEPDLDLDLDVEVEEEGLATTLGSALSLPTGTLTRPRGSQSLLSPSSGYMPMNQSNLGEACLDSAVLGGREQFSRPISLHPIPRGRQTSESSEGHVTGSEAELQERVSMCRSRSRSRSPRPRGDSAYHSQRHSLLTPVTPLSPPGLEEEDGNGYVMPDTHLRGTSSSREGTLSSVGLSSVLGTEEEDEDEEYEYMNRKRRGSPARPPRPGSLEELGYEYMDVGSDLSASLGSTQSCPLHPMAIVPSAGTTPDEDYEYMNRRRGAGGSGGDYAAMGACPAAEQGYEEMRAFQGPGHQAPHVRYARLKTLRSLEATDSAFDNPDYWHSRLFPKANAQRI
Protocol: as §1, §2

rat HER3 = target: T3, rat HER3 (Rattus norvegicus, UniProt Q62799); experiment: ELISA cross-reactivity, rat HER3; type: binding
T3 construct: purchased Sino Biological Inc., China
T3 sequence (Q62799 20-1339): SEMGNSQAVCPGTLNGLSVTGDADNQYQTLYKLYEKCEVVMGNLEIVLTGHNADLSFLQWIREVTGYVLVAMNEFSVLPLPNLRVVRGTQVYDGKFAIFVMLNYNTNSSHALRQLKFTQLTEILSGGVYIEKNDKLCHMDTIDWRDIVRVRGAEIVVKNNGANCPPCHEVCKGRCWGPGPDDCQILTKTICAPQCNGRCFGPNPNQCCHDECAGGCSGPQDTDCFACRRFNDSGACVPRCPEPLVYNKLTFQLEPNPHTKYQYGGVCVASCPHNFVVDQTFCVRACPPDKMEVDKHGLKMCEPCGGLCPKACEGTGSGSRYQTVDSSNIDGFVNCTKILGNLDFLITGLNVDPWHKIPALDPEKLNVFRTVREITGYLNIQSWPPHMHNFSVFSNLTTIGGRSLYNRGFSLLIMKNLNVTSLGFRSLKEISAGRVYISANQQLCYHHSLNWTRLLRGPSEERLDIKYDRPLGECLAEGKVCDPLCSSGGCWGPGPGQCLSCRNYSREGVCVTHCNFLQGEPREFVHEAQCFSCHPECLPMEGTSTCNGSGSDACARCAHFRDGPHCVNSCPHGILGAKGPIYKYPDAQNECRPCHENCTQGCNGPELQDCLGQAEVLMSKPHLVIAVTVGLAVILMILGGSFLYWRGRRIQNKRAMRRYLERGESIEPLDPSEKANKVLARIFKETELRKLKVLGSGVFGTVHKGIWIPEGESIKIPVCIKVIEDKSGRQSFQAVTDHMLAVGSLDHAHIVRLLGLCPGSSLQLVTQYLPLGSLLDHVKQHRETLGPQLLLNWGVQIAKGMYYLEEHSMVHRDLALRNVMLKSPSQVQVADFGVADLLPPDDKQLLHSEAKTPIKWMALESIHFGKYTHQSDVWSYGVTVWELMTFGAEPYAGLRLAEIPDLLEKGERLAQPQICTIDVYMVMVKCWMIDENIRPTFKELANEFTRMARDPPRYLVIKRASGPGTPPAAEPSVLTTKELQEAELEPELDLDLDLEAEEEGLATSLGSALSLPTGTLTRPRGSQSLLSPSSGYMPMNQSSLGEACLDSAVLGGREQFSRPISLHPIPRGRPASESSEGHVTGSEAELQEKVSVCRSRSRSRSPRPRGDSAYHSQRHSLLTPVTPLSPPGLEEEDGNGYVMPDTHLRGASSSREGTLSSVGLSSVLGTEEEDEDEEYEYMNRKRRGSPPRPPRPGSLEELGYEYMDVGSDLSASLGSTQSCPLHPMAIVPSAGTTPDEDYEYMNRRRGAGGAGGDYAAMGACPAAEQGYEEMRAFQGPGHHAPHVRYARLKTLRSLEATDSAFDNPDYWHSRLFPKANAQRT
Protocol: as §1, §2

human EGFR = target: T4, human EGFR (Homo sapiens, UniProt P00533); experiment: ELISA specificity, human EGFR; type: binding; conditions: antibody up to 10 μg/ml
T4 construct: purchased Sino Biological Inc., China
Protocol: as §1, §3, §4, §5

[3] = target: human HER3:human NRG1 complex (Homo sapiens, UniProt P21860); experiment: BLI binding to HER3-NRG1 complex ('open' conformation); conditions: presence of NRG1 (1:1 molar ratio)
Protocol: (§6) In further experiments, anti-HER3 antibodies were analysed in order to determine the affinity of binding to human HER3 in the context of a human HER3:human NRG1 complex (that is, HER3 provided in the ligand-bound, ‘open’ conformation), as compared to the affinity of binding to human HER3 in the absence of NRG1 complex (that is, HER3 provided in the unbound, ‘closed’ conformation).
(§7) Binding of anti-HER3 antibodies to human HER3 was evaluated by BLI. Briefly, anti-Human IgG Capture (AHC) sensors (ForteBio) were loaded with anti-HER3 IgG antibodies (25 nM). Kinetic measurements were performed in absence or presence of NRG1. NRG1 was used at 1:1 molar ratio with HER3 wherein the complex was allowed to form at RT for 2 h. His-tagged human HER3 or HER3-NRG1 complexes were loaded to antibody coated AHC sensors at different concentrations for 120 s, followed by a 120 s dissociation time. All measurements were performed at 25° C. with agitation at 1000 rpm. Sensorgrams were referenced for buffer effects and then analyzed using the Octet QK384-software (ForteBio). Kinetic responses were globally fitted using a one-site binding model to obtain values for association (Kon), dissociation (Koff) rate constants and the equilibrium dissociation constant (KD).

human HER3 [4] = target: T5, human HER3 (Homo sapiens, UniProt P21860); experiment: Immunohistochemistry on frozen human tissue arrays; set-up: Arrays of commercially-available frozen tissue sections were obtained; from tissue; host or cells: frozen human normal and malignant tissue section arrays; conditions: mIgG2a format
Protocol: Anti-HER3 antibody 10D1F in mIgG2a format was evaluated for its ability to be used in immunohistochemistry for the detection of human HER3 protein.
Processing of sections was performed using Bond reagents (Leica Biosystems). Arrays of commercially-available frozen tissue sections were obtained. Slides were dried in a desiccator for 10 min and then subjected to the following treatments, with water washes and/or TBS-T rinses between steps: (i) fixation by treatment with 100% acetone for 10 min at room temperature; (ii) endogenous peroxidase blocking by treatment with 3% (v/v) H2O2 for 15 min at room temperature; (iii) blocking by treatment with 10% goat serum for 30 min at room temperature, (iv) incubation with 10D1 F-mIgG2a at 1:250 dilution of a 6.2 mg/ml solution overnight at 4° C., (v) incubation with HRP-polymer conjugated goat anti-mouse antibody for 30 min at room temperature, and (vi) development with Bond Mixed DAB Refine for 5 min at room temperature, followed by rinsing with deionised water and 1× Bond Wash to stop the reaction.
Slides were then dehydrated, mounted in synthetic mounting media and scanned with high resolution.

human HER3 [5] = target: T5, human HER3; experiment: Global affinity study, Bio-Layer Interferometry (Octet QK384); type: binding; conditions: BLI, His-tagged human HER3, IgG1 format, 25° C.; read-out: Affinity (KD)
Protocol: The anti-HER3 antibody clones in IgG1 format were analysed for binding affinity to human HER3. Bio-Layer Interferometry (BLI) experiments were performed using the Octet QK384 system (ForteBio). anti-Human IgG Capture (AHC) Octet sensor tips (Pall ForteBio, USA) were used to anti-HER3 antibodies (25 nM). All measurements were performed at 25° C. with agitation at 1000 rpm. Kinetic measurements for antigen binding were performed by loading His-tagged human HER3 antigens at different concentrations for 120 s, followed by a 120 s dissociation time by transferring the biosensors into assay buffer containing wells. Sensograms were referenced for buffer effects and then fitted using the Octet QK384 user software (Pall ForteBio, USA). Kinetic responses were subjected to a global fitting using a one site binding model to obtain values for association (Kon), dissociation (Koff) rate constants and the equilibrium dissociation constant (KD). Only curves that could be reliably fitted with the software (R^2>0.90) were included in the analysis.
Bio-Layer Interferometry (BLI) experiments were performed using the Octet QK384 system (ForteBio). […] Binding was detected using titrated HIS-tagged human HER3 in steps of baseline (60 s), loading (120 s), baseline2 (60 s), association (120 s), dissociation (FcA 120 s, FcB 600 s) and regeneration (15 s). Sensorgrams were analysed as described in Example 3.3. […]

human HER3 [6] = target: T5, human HER3; experiment: BLI binding to HER3 in absence of NRG1 ('closed' conformation)
Protocol: as §6, §7

B1: MM-121: anti-HER3 antibody blocking binding of heregulin (NRG) to HER3 (antibody, chains of the INN, looked up)
heavy: EVQLLESGGGLVQPGGSLRLSCAASGFTFSHYVMAWVRQAPGKGLEWVSSISSSGGWTLYADSVKGRFTISRDNSKNTLYLQMNSLRAEDTAVYYCTRGLKMATIFDYWGQGTLVTVSSASTKGPSVFPLAPCSRSTSESTAALGCLVKDYFPEPVTVSWNSGALTSGVHTFPAVLQSSGLYSLSSVVTVPSSNFGTQTYTCNVDHKPSNTKVDKTVERKCCVECPPCPAPPVAGPSVFLFPPKPKDTLMISRTPEVTCVVVDVSHEDPEVQFNWYVDGVEVHNAKTKPREEQFNSTFRVVSVLTVVHQDWLNGKEYKCKVSNKGLPAPIEKTISKTKGQPREPQVYTLPPSREEMTKNQVSLTCLVKGFYPSDIAVEWESNGQPENNYKTTPPMLDSDGSFFLYSKLTVDKSRWQQGNVFSCSVMHEALHNHYTQKSLSLSPG
light: QSALTQPASVSGSPGQSITISCTGTSSDVGSYNVVSWYQQHPGKAPKLIIYEVSQRPSGVSNRFSGSKSGNTASLTISGLQTEDEADYYCCSYAGSSIFVIFGGGTKVTVLGQPKAAPSVTLFPPSSEELQANKATLVCLVSDFYPGAVTVAWKADGSPVKVGVETTKPSKQSNNKYAASSYLSLTPEQWKSHRSYSCRVTHEGSTVEKTVAPAECS
[1]
  T½ (terminal half life): 10.5 days
[1]; normalised to per mg/kg dosed
  Cmax (μg/ml) normalised to per mg/kg dosed: 24 to 25 µg/mL

B2: 4-35-B2: anti-HER3 antibody clone, VH SEQ ID NO:127, VL SEQ ID NO:135 (antibody, V domains shown)
VH: EIQLQQSGPELVKPGASVKVSCKASGYSFTDYNMYWVKQSHGKSLEWIGHINPYNGGTTYNQKFKGRATLTVDKSSSTAFMHLNSLTSEDSAVYFCVSLRWGAMDYWGQGTSVTVSS
VL: QIVLTQSPALMSASPGEKVTMTCSASSSVSYMYWYQQKPRSSPKPWIYLTSNLASGVPARFSGSGSGTSYSLTISSMEAEDAATYYCQQWNSNPYTFGGGTKLEIK
Cynomolgus macaque HER3
  binding / cross-reactivity with cynomolgus macaque HER3: substantial cross-reactivity
[2]
  inhibition of tumor growth: ~63%
Human HER2
  binding to human HER2: found to bind
Mouse HER3
  binding / cross-reactivity with mouse HER3: substantial cross-reactivity
Rat HER3
  binding / cross-reactivity with rat HER3: substantial cross-reactivity
Human EGFR
  binding to human EGFR (HER1): found to bind

B3: 10D1_c89: clone 10D1F comprises VH of SEQ ID NO:36 and VL of SEQ ID NO:83 (antibody, V domains shown)
VH: QVQLQESGPGLVKPSQTLSLTCTVSGYSITSGYSWHWIRQHPGKGLEWIGSIRYSGGTDYNPSLKSLVTISADTSKNQFSLKLSSVTAADTAVYYCARMTTAPWYPFDYWGQGTTVTVSS
VL: DIQMTQSPSSVSASVGDRVTITCKASQIVGSNVAWYQQKPGKAPEPLIYSASYLYSGVPSRFSGSGSGTDFTLTISSLQPEDFATYYCQQYSSHPLTFGQGTKLEIK
[3]
  affinity of binding to human HER3: sub-picomolar affinity
Human HER3 [4]
  immunohistochemical staining of malignant and normal human tissue: preferentially stained malignant human tissue sections, with low cross-reactivity to normal tissue
Human HER3 [5]
  Kd: 0.0726 nM
Human HER3 [6]
  affinity of binding to human HER3: sub-picomolar affinity
